Laboratory results as given in PMC8786347 (Oncoimmunology, 2022).

Tests used:
Assay in all cases: ELISA
CD27-huFc = molecular target: T1, CD27-huFc (UniProt P26842 20-191)
T1 sequence (looked up): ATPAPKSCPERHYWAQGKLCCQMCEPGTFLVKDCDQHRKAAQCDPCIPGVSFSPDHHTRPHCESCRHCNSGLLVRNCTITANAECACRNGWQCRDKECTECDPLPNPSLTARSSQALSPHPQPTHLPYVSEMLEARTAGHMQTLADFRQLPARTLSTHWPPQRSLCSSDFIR

OX40-moFc = molecular target: T2, OX40-moFc (UniProt P43489 29-214)
T2 sequence (looked up): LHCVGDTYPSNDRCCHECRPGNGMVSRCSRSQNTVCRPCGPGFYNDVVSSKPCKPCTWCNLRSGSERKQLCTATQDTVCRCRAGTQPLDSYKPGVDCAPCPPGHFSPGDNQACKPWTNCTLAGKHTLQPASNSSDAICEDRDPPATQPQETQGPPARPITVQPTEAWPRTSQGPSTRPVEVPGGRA

CD27-moFc = molecular target: T3, CD27-moFc (UniProt P26842 20-191)
T3 sequence (looked up): T1 sequence (looked up)

EC50 (CD27-huFc): 0.3 nM
EC50 (OX40-moFc): 0.3 nM
EC50 (CD27-moFc): 0.3 nM
B1: scCD27L-scOX40L-Fc (Fc fusion, human)
chain 1: SLGWDVAELQLNHTGPQQDPRLYWQGGPALGRSFLHGPELDKGQLRIHRDGIYMVHIQVTLAICSSTTASRHHPTTLAVGICSPASRSISLLRLSFHQGCTIASQRLTPLARGDTLCTNLTGTLLPSRNTDETFFGVQWVRPGGSLGWDVAELQLNHTGPQQDPRLYWQGGPALGRSFLHGPELDKGQLRIHRDGIYMVHIQVTLAICSSTTASRHHPTTLAVGICSPASRSISLLRLSFHQGCTIASQRLTPLARGDTLCTNLTGTLLPSRNTDETFFGVQWVRPGGSLGWDVAELQLNHTGPQQDPRLYWQGGPALGRSFLHGPELDKGQLRIHRDGIYMVHIQVTLAICSSTTASRHHPTTLAVGICSPASRSISLLRLSFHQGCTIASQRLTPLARGDTLCTNLTGTLLPSRNTDETFFGVQWVRP
chain 2: QVSHRYPRIQSIKVQFTEYKKEKGFILTSQKEDEIMKVQNNSVIINCDGFYLISLKGYFSQEVNISLHYQKDEEPLFQLKKVRSVNSLMVASLTYKDKVYLNVTTDNTSLDDFHVNGGELILIHQNPGEFCVLGGGGSGGGGSGGGGSQVSHRYPRIQSIKVQFTEYKKEKGFILTSQKEDEIMKVQNNSVIINCDGFYLISLKGYFSQEVNISLHYQKDEEPLFQLKKVRSVNSLMVASLTYKDKVYLNVTTDNTSLDDFHVNGGELILIHQNPGEFCVLGGGGSGGGGSGGGGSQVSHRYPRIQSIKVQFTEYKKEKGFILTSQKEDEIMKVQNNSVIINCDGFYLISLKGYFSQEVNISLHYQKDEEPLFQLKKVRSVNSLMVASLTYKDKVYLNVTTDNTSLDDFHVNGGELILIHQNPGEFCVL
